We go through 11 molecules from patent publication US5495006A, “Antiviral polynucleotide conjugates” (Allelix Biopharmaceuticals, Inc., priority 1993, dated 1996).

What is called Kd is the equilibrium constant for the complex coming apart. Low values mean a tighter complex, high ones a looser complex.

Series [1] deals with HIV-1 Tat-derived peptide RKKRRQRRRPPQGS (Human immunodeficiency virus 1). Put plainly: EMSA. In general terms: In EMSA bound probe runs differently from free probe, usually more slowly.
For the next series, the system named is HSV-1. Nature of the series: Plaque reduction assay, HSV-1 in Vero cells. In kind it is cell-based, herpes simplex virus type I. The following applies: for % Inhibition (plaque reduction, HSV-1 replication): Vero cells, estimation. Here is the method: Specifically, monolayers of cells were pretreated by incubation with one of conjugates (III) and (IV), infected with various concentrations of HSV-1 (measured by plaque forming units, PFU) and the infected cells were then incubated in the presence of conjugate. Following incubation with the conjugate, the cells were stained using the conventional crystal violet staining method. Those portions of the cell monolayer appearing as clear, unstained areas were identified as dead, virally-infected cells (i.e. plaques), while those areas stained purple indicated viable cells. Thus, inhibition of the virus was determined by counting, using a dissecting microscope, the number of plaques. The number of plaques on a plate incubated in the presence of conjugate was compared to the number of plaques on a control plate incubated in the absence of conjugate and the extent of viral inhibition was thus determined.
Vero cells (African green monkey kidney cells, ATCC CCL 81) were seeded into a 96-well plate at a concentration of 2×10^4 cells per well in 50 μl of Dulbecco's modified eagle medium (DMEM, Gibco). The media was supplemented with 10% Nu-serum (Biomedical Products), penicillin (100 IU/ml), streptomycin ([…]) and gentamicin (0.02 mg/ml) obtained from Gibco. The cells were pretreated with polynucleotide conjugate (III) at concentrations of 1 μM and 10 μM by incubation for 24 hours at 37° C. and 5% CO2. Following the incubation, the culture medium was removed from the cells. […]
The media was removed from the cells and the cells were subsequently stained with crystal violet in 70% ethanol:formalin:acetic acid (20:2:1) solution and heat fixed. The average number of plaques per well of each test sample were counted using a dissecting microscope (10-40× magnification). Inhibition was determined as the difference between the number of plaques in the control sample (0 μM conjugate) and the number of plaques in the test sample. […]

In series [2] the target is T1, HIV-1 Tat full-length (86 aa) (Human immunodeficiency virus 1, UniProt P04608 P04608:1-86). Put plainly: EMSA; binds efficiently. Conditions: tags: American Bio-Technologies, Inc; label: 32P; cyclic dumbbell with UCU bulge.
The target in series [3] is T2, HIV-1 Tat-derived peptide RKKRRQRRRPPQGS (Human immunodeficiency virus 1).
T2 chain: RKKRRQRRRPPQGS
Nature of the series: EMSA; 40.1% active RNA. Conditions: protein: synthetic; tags: synthetic peptide, American Peptide Co; HIV LAI isolate; label: 5'-32P; linker-bridged hairpin with UCU bulge.

Series [4] has as its target T2, HIV-1 Tat-derived peptide RKKRRQRRRPPQGS
Put plainly: EMSA; Tm 60 C. The following applies: protein: synthetic; tags: synthetic peptide, American Peptide Co; HIV LAI isolate; label: 5'-32P; linker-bridged hairpin.

Series [5] has the same target. Put plainly: EMSA; binds efficiently. The following applies: protein: synthetic; tags: synthetic peptide, American Peptide Co; HIV LAI isolate; label: 32P; cyclic dumbbell with UCU bulge.
The target of series [6] is T1, HIV-1 Tat full-length (86 aa). Put plainly: EMSA; pre-formed complex used for competition. The following applies: tags: American Bio-Technologies, Inc; label: 5'-32P; hairpin with UCU bulge and 6-nt loop.
The target of series [7] is T2, HIV-1 Tat-derived peptide RKKRRQRRRPPQGS
Nature of the series: EMSA; 10 mM Tris pH 7.5, 50 mM NaCl, 1 mM DTT, 1 mM EDTA, 23 C; 45.9% active RNA. The following applies: protein: synthetic; tags: synthetic peptide, American Peptide Co; HIV LAI isolate; label: 5'-32P; hairpin with UCU bulge and 6-nt loop.

For series [8] the target is unchanged. Nature of the series: EMSA; Tm 61 C; SEQ 2 in the listing appears to be printed 3'-5'. The following applies: protein: synthetic; tags: synthetic peptide, American Peptide Co; HIV LAI isolate; label: 5'-32P; bottom-linked duplex with UCU bulge.
For series [9] the target is unchanged. Nature of the series: EMSA; 17.8% active RNA. The following applies: protein: synthetic; tags: synthetic peptide, American Peptide Co; HIV LAI isolate; label: 5'-32P; linker-bridged hairpin with UCU bulge.
Series [10] shares this target. Put plainly: EMSA; 38.3% active RNA. The following applies: protein: synthetic; tags: synthetic peptide, American Peptide Co; HIV LAI isolate; label: 5'-32P; linker-bridged hairpin with UCU bulge.

Consider “GGAGAUCUGAGCGCUCUCUCC [TAR conjugate 5D]”, for which the Kd in series [1] (linker D (hexaethylene glycol) replaces 6-nt loop between the two strands, 56.0% active RNA) amounted to 0.66 nM. For the molecule “conjugate (III): 22-deoxyribonucleotide fully hybridized ICP4 DNA-binding site (SEQ ID NOS 6 and 7), strands joined by linker LA HO--(CH2)9--OH (chain 1 CGCTATCGTCCATACCGACCAC; chain 2 GTGGTCGGTATGGACGATAGCG; DNA, backbone not given here; strands joined by nonanediol linker)”, the “% Inhibition (plaque reduction, HSV-1 replication)” value with HSV-1 (1 μM conjugate) is recorded as 25%; in the series on HSV-1 (10 μM conjugate), 50%. Besides, in the series with HSV-1 (plaque reduction assay), the “Inhibition of HSV-1 (in words)” value is recorded as “inhibit HSV-1”. “GGAGAUCUGAGCGCUCUCUCC [TAR conjugate 5B]” showed a Kd in [1] (linker B (triethylene glycol) replaces 6-nt loop between the two strands, 42.6% active RNA) of 0.95 nM. Consider GGAGAUCUGAGCGCUCUCUCC (ssRNA, cyclic 21-mer, linker D at top and bottom of duplex) [cyclic TAR conjugate oligomer 15], for which the binding result in series [2] is “binds”. As to GGAGAUCUGAGCGCUCUCUCC (ssRNA, linker A -O-(CH2)9-O- replaces 6-nt loop between the two strands) [TAR conjugate 5A], in [3], the affinity, expressed as Kd, was 0.71 nM.

B1: TAR conjugate structure 8 (ssRNA)
RNA: GGAGAUGAGCGCUCUCUCC
modifications: bulge UCU replaced by U-Lc-Lc (two C3 linkers between nt 6 and nt 9); loop closure shown only in structure drawing
In [4], B1 gave a Kd of 0.51 nM. For the molecule UCUCCUUCGGGAGAUCUGAGCCUGGGAGCUC (ssRNA, cyclic (T4 RNA ligase closed)) [cyclic TAR 31-mer (oligomer 13)], the binding result in series [2] and in [5] was “binds” in each case.

As to GGAGAUCUGAGCCUGGGAGCUCUCUCC (ssRNA) [TAR 27-mer (oligomer 4)], in [6], the binding result was “binds”. In [7], this molecule yielded a Kd of 0.41 nM. For GCUCUCUCCGGAGAUCUGAGC (ssRNA, chemical linker at bottom of duplex between the two strands) [TAR conjugate oligomer 9], the Kd in [8] was found to be 2.2 nM. Take GGAGAUCUGAGCGCUCUCUCC (ssRNA, two coupled linkers C replace 6-nt loop between the two strands) [TAR conjugate 5CC]: the affinity in series [9], expressed as Kd, was 0.43 nM.

Molecule GGAGAUCUGAGCGCUCUCUCC (ssRNA, two coupled linkers B replace 6-nt loop between the two strands) [TAR conjugate 5BB] showed a Kd in series [10] of 1.13 nM.
